Measured values from patent publication US20220185894A1 (F STAR THERAPEUTICS, published 2022).
Where “and” joins values, the source holds several entries; their conditions need not be identical. Identical values can stand only once.

T1: recombinant Fc-tagged human LAG-3 (R&D Systems, 2319-L3-050) (human, UniProt P18627 23-450)
T1 construct: Bought protein; also called LAG-3 Fc; human LAG-3-Fc; not shown: Fc tag of the bought fusion protein
T1 sequence: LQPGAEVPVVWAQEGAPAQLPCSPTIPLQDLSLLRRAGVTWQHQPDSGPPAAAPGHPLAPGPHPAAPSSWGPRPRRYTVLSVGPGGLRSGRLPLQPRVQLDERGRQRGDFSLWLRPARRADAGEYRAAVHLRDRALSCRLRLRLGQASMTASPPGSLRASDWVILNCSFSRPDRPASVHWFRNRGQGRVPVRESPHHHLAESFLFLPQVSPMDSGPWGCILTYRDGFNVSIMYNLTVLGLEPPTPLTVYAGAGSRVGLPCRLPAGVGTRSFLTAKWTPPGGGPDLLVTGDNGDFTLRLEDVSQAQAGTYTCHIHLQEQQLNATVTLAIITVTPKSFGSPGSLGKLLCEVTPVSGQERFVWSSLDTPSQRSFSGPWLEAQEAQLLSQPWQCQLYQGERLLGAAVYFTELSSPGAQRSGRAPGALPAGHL

B1: anti-human LAG-3/PD-L1 mAb2 FS18-7-32/84G09 with LALA mutation (bispecific antibody, human IgG1, kappa, L234A L235A)
heavy: EVQLVESGGGLVQPGRSLRLSCAASGFTFDDYAMHWVRQTPGKGLEWVSGISWKSNIIGYADSVKGRFTISRDNAKNSLYLQMNSLRAEDTALYYCARDITGSGSYGWFDPWGQGTLVTVSSASTKGPSVFPLAPSSKSTSGGTAALGCLVKDYFPEPVTVSWNSGALTSGVHTFPAVLQSSGLYSLSSVVTVPSSSLGTQTYICNVNHKPSNTKVDKKVEPKSCDKTHTCPPCPAPEAAGGPSVFLFPPKPKDTLMISRTPEVTCVVVDVSHEDPEVKFNWYVDGVEVHNAKTKPREEQYNSTYRVVSVLTVLHQDWLNGKEYKCKVSNKALPAPIEKTISKAKGQPREPQVYTLPPSWDEPWGEDVSLTCLVKGFYPSEIAVEWESNGQPENNYKTTPPVLDSDGSFFLYSKLTVPYDRWVWPDEFSCSVMHEALHNHYTQKSLSLSPG
light: DIQMTQSPSSLSASVGDRVTITCRASQSISSYLNWYQQKPGKAPKPLIYVASSLQSGVPSSFSGSGSGTDFTLTISSLQPEDFATYYCQQSYSNPITFGQGTRLEIKRTVAAPSVFIFPPSDEQLKSGTASVVCLLNNFYPREAKVQWKVDNALQSGNSQESVTEQDSKDSTYSLSSTLTLSKADYEKHKVYACEVTHQGLSSPVTKSFNRGEC
notes: also called FS18-7-32/84G09LALA; F518-7-32/84G09LALA
B2: anti-human LAG-3/PD-L1 mAb2 FS18-7-95/84G09 with LALA mutation (bispecific antibody, human IgG1, kappa, L234A L235A)
heavy: EVQLVESGGGLVQPGRSLRLSCAASGFTFDDYAMHWVRQTPGKGLEWVSGISWKSNIIGYADSVKGRFTISRDNAKNSLYLQMNSLRAEDTALYYCARDITGSGSYGWFDPWGQGTLVTVSSASTKGPSVFPLAPSSKSTSGGTAALGCLVKDYFPEPVTVSWNSGALTSGVHTFPAVLQSSGLYSLSSVVTVPSSSLGTQTYICNVNHKPSNTKVDKKVEPKSCDKTHTCPPCPAPEAAGGPSVFLFPPKPKDTLMISRTPEVTCVVVDVSHEDPEVKFNWYVDGVEVHNAKTKPREEQYNSTYRVVSVLTVLHQDWLNGKEYKCKVSNKALPAPIEKTISKAKGQPREPQVYTLPPSWDEPWGEDVSLTCLVKGFYPSDIAVEWESNGYQEDNYKTTPPVLDSDGSFFLYSKLTVPYDRWVWPDEFSCSVMHEALHNHYTQKSLSLSPG
light: DIQMTQSPSSLSASVGDRVTITCRASQSISSYLNWYQQKPGKAPKPLIYVASSLQSGVPSSFSGSGSGTDFTLTISSLQPEDFATYYCQQSYSNPITFGQGTRLEIKRTVAAPSVFIFPPSDEQLKSGTASVVCLLNNFYPREAKVQWKVDNALQSGNSQESVTEQDSKDSTYSLSSTLTLSKADYEKHKVYACEVTHQGLSSPVTKSFNRGEC
B3: anti-human LAG-3/PD-L1 mAb2 FS18-7-58/84G09 with LALA mutation (bispecific antibody, human IgG1, kappa, L234A L235A)
heavy: EVQLVESGGGLVQPGRSLRLSCAASGFTFDDYAMHWVRQTPGKGLEWVSGISWKSNIIGYADSVKGRFTISRDNAKNSLYLQMNSLRAEDTALYYCARDITGSGSYGWFDPWGQGTLVTVSSASTKGPSVFPLAPSSKSTSGGTAALGCLVKDYFPEPVTVSWNSGALTSGVHTFPAVLQSSGLYSLSSVVTVPSSSLGTQTYICNVNHKPSNTKVDKKVEPKSCDKTHTCPPCPAPEAAGGPSVFLFPPKPKDTLMISRTPEVTCVVVDVSHEDPEVKFNWYVDGVEVHNAKTKPREEQYNSTYRVVSVLTVLHQDWLNGKEYKCKVSNKALPAPIEKTISKAKGQPREPQVYTLPPSWDEPWGEDVSLTCLVKGFYPSDIAVEWESNGYPEIEFKTTPPVLDSDGSFFLYSKLTVPYDRWVWPDEFSCSVMHEALHNHYTQKSLSLSPG
light: DIQMTQSPSSLSASVGDRVTITCRASQSISSYLNWYQQKPGKAPKPLIYVASSLQSGVPSSFSGSGSGTDFTLTISSLQPEDFATYYCQQSYSNPITFGQGTRLEIKRTVAAPSVFIFPPSDEQLKSGTASVVCLLNNFYPREAKVQWKVDNALQSGNSQESVTEQDSKDSTYSLSSTLTLSKADYEKHKVYACEVTHQGLSSPVTKSFNRGEC
notes: also called F518-7-58/84G09LALA
B4: anti-human LAG-3/PD-L1 mAb2 FS18-7-88/84G09 with LALA mutation (bispecific antibody, human IgG1, kappa, L234A L235A)
heavy: EVQLVESGGGLVQPGRSLRLSCAASGFTFDDYAMHWVRQTPGKGLEWVSGISWKSNIIGYADSVKGRFTISRDNAKNSLYLQMNSLRAEDTALYYCARDITGSGSYGWFDPWGQGTLVTVSSASTKGPSVFPLAPSSKSTSGGTAALGCLVKDYFPEPVTVSWNSGALTSGVHTFPAVLQSSGLYSLSSVVTVPSSSLGTQTYICNVNHKPSNTKVDKKVEPKSCDKTHTCPPCPAPEAAGGPSVFLFPPKPKDTLMISRTPEVTCVVVDVSHEDPEVKFNWYVDGVEVHNAKTKPREEQYNSTYRVVSVLTVLHQDWLNGKEYKCKVSNKALPAPIEKTISKAKGQPREPQVYTLPPSWDEPWGEDVSLTCLVKGFYPSDIAVEWESNGVPELNVKTTPPVLDSDGSFFLYSKLTVPYDRWVWPDEFSCSVMHEALHNHYTQKSLSLSPG
light: DIQMTQSPSSLSASVGDRVTITCRASQSISSYLNWYQQKPGKAPKPLIYVASSLQSGVPSSFSGSGSGTDFTLTISSLQPEDFATYYCQQSYSNPITFGQGTRLEIKRTVAAPSVFIFPPSDEQLKSGTASVVCLLNNFYPREAKVQWKVDNALQSGNSQESVTEQDSKDSTYSLSSTLTLSKADYEKHKVYACEVTHQGLSSPVTKSFNRGEC
B5: anti-human PD-L1 mAb 84G09 (without LALA mutation) (antibody, human IgG1, kappa)
heavy: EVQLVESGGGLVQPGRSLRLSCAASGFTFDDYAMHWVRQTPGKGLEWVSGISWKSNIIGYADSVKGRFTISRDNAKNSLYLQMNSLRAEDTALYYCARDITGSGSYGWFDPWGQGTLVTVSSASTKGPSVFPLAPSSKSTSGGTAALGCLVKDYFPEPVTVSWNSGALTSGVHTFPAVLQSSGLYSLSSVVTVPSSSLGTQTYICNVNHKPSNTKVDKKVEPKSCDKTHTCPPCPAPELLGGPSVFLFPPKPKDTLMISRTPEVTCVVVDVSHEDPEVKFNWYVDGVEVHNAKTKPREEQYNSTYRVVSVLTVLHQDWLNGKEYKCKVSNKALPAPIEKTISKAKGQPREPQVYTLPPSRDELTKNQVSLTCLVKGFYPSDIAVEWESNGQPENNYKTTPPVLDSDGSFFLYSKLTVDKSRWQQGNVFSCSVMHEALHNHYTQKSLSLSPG
light: DIQMTQSPSSLSASVGDRVTITCRASQSISSYLNWYQQKPGKAPKPLIYVASSLQSGVPSSFSGSGSGTDFTLTISSLQPEDFATYYCQQSYSNPITFGQGTRLEIKRTVAAPSVFIFPPSDEQLKSGTASVVCLLNNFYPREAKVQWKVDNALQSGNSQESVTEQDSKDSTYSLSSTLTLSKADYEKHKVYACEVTHQGLSSPVTKSFNRGEC
notes: Human IgG1; also called 84G09 (parental); parental anti-PD-L1 mAb
B6: anti-human LAG-3/PD-L1 mAb2 FS18-7-33/84G09 with LALA mutation (bispecific antibody, human IgG1, kappa, L234A L235A)
heavy: EVQLVESGGGLVQPGRSLRLSCAASGFTFDDYAMHWVRQTPGKGLEWVSGISWKSNIIGYADSVKGRFTISRDNAKNSLYLQMNSLRAEDTALYYCARDITGSGSYGWFDPWGQGTLVTVSSASTKGPSVFPLAPSSKSTSGGTAALGCLVKDYFPEPVTVSWNSGALTSGVHTFPAVLQSSGLYSLSSVVTVPSSSLGTQTYICNVNHKPSNTKVDKKVEPKSCDKTHTCPPCPAPEAAGGPSVFLFPPKPKDTLMISRTPEVTCVVVDVSHEDPEVKFNWYVDGVEVHNAKTKPREEQYNSTYRVVSVLTVLHQDWLNGKEYKCKVSNKALPAPIEKTISKAKGQPREPQVYTLPPSWDEPWGEDVSLTCLVKGFYPSDIAVEWESNGQPEDNYKTTPPVLDSDGSFFLYSKLTVPYDRWVWPDEFSCSVMHEALHNHYTQKSLSLSPG
light: DIQMTQSPSSLSASVGDRVTITCRASQSISSYLNWYQQKPGKAPKPLIYVASSLQSGVPSSFSGSGSGTDFTLTISSLQPEDFATYYCQQSYSNPITFGQGTRLEIKRTVAAPSVFIFPPSDEQLKSGTASVVCLLNNFYPREAKVQWKVDNALQSGNSQESVTEQDSKDSTYSLSSTLTLSKADYEKHKVYACEVTHQGLSSPVTKSFNRGEC
notes: also called FS18-7-33/84G09LALA; F518-7-33/84G09LALA

Assays:
[1] = target: T2, human PD-L1 expressed on cells (human, UniProt Q9NZQ7 19-290); test: cell-based or functional assay
T2 sequence (Q9NZQ7 19-290 limits assumed): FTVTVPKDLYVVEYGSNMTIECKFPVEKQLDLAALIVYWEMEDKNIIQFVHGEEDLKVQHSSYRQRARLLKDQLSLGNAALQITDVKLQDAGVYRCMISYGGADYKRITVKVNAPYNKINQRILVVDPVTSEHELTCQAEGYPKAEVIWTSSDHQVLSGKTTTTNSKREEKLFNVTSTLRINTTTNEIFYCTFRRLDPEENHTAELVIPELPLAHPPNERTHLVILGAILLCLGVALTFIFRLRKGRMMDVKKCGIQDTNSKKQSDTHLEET

[2] = target: T2, human PD-L1 expressed on cells; test: flow cytometry on HEK cells expressing human PD-L1
Protocol: (§1) HEK cells expressing human or cynomolgus PD-L1 grown in DMEM (Life Technologies, 61965-026) containing 10% FBS (Life Technologies, 10270-1-6), 100 μg/ml Hygromycin B (Melford Laboratories Ltd, Z2475), 15 μg/ml Blasticidin (Melford Laboratories Ltd, B1105) and 1 μg/ml Doxycyclin (Sigma, D9891) were detached from tissue culture flasks using cell dissociation buffer (Life Technologies, 13151-014) and seeded in V-bottom 96-well plates (Costar, 3897) at 2×10⁵ cells/well. The plates were centrifuged at 1500 rpm for 3 min at 4° C. to pellet the cells. A dilution series of the mAb² (or control mAb) was incubated with the cells in a 100 μl volume for 1 h at 4° C. The plates were washed and secondary antibody (Anti-human Fc-488, Jackson ImmunoResearch, 109-546-098) was diluted 1:1000 in PBS and 100 μl was added to the cells for 30 min at 4° C. (plates were kept in the dark). The plates were washed then cells were resuspended in 100 μl PBS containing 1 μg/ml DAPI (Biotium, 40043). The plates were read using Canto II flow cytometer (BD Bioscience). Dead cells were excluded and the fluorescence in the FITC channel (488 nm/530/30) was measured. The data was fit using log (agonist) vs response in GraphPad Prism Software. The plates were read on a BD FACSCanto II cytometer (BD Biosciences) and the data analysed using FlowJo.

[3] = target: T3, cynomolgus PD-L1 expressed on cells (cynomolgus monkey, UniProt Q9NZQ7 19-290 (human entry)); test: flow cytometry on HEK cells expressing cynomolgus PD-L1
T3 construct: also called cPD-L1; cyno PD-L1
T3 sequence (Q9NZQ7 other isoform, or with tags, fused parts or gaps limits assumed): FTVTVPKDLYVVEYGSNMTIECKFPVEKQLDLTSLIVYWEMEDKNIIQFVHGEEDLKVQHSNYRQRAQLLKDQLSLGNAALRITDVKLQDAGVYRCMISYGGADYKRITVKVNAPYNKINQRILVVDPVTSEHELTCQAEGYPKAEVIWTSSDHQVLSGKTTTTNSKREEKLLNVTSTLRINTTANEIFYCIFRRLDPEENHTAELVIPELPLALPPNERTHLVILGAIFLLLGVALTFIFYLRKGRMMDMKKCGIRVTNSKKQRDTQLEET
Protocol: as §1

[4] = target: T4, human PD-L1 Fc (R&D Systems, 156-B7) (human, UniProt Q9NZQ7 19-239); test: SPR, BIAcore T200; mAb2 captured on Protein L, PD-L1 Fc injected
T4 construct: Bought protein; not shown: Fc tag of the bought fusion protein
T4 sequence (Q9NZQ7 19-239 limits assumed): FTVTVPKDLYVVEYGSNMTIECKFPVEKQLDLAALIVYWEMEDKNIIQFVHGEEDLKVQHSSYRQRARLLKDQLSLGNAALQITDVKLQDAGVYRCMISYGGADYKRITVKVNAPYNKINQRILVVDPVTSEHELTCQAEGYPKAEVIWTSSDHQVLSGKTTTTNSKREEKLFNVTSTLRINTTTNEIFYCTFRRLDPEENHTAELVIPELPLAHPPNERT
Protocol: (§2) Protein L (Thermo, 21189) was immobilized on flow cells 1 and 2 of a Series S CM5 chip (GE Healthcare, BR-1005-30) by amine coupling (GE Healthcare, BR-1000-50) to a surface density of 2000 RU by following the manufacturer's instructions for the BIAcore T200 instrument. […] The association time was 3 min and the dissociation time was 6 min. Running buffer was HBS-P (GE Healthcare, BR-1003-68). Both flow cells were regenerated by injecting 10 mM sodium hydroxide (NaOH) at a flow rate of 100 μl/min for 20 seconds. The data were analysed by double referencing against the blank flow cell.
(§3) The binding kinetics were fit with a 1:1 Langmuir model to generate binding association (kₐ) and dissociation (kd) rates. Equilibrium binding constants (KD) were calculated by dividing the dissociation rate by the association rate for each sample. Data analysis was performed with BiaEvaluation software version 3.2.

[5] = target: T1, recombinant Fc-tagged human LAG-3 (R&D …); test: SPR, BIAcore T200; mAb2 captured on Protein L, human LAG-3 Fc injected
Protocol: as §2, §3

Binder | Maximal IL2 release calculated as % ctrl (84G09 + 25F7) [1] | EC50 [2] | EC50 [3] | Kd [4] | koff [4] | kon [4] | Kd [5] | koff [5] | kon [5]
B1 | 82.9% | 3.82 nM | 1.98 nM | 1 nM | 0.00032 s⁻¹ | 340000 M⁻¹ s⁻¹ | 0.049 nM | 0.00028 s⁻¹ | 5.6e+06 M⁻¹ s⁻¹
B2 | 79.8% | – | – | – | – | – | – | – | –
B3 | 79.4% | 3.77 nM and 3.91 nM | 1.86 nM and 2.03 nM | – | – | – | – | – | –
B4 | – | 3.49 nM | 1.81 nM | – | – | – | – | – | –
B5 | – | 3.11 nM and 3.05 nM | 1.64 nM and 1.96 nM | – | – | – | – | – | –
B6 | 64% | 3.45 nM and 3.23 nM | 1.9 nM and 1.73 nM | 1.1 nM | 0.00042 s⁻¹ | 370000 M⁻¹ s⁻¹ | 0.043 nM | 0.00018 s⁻¹ | 4.2e+06 M⁻¹ s⁻¹
